Test [1] deals with recombinant human HER2 protein HER2-ECD with His-tag (human) (UniProt P04626). In words: ELISA on coated HER2-ECD, 11-point dilution from 1000 ng/ml. On the technique in general: ELISA stands for enzyme-linked immunosorbent assay.
Test [2] has the same target. Put plainly: ELISA on coated HER2-ECD, average of 3 independent assays, single site fit.

From US20160304621A1 come the findings set out here.

RC48-vc-MMAF, sequence (VH): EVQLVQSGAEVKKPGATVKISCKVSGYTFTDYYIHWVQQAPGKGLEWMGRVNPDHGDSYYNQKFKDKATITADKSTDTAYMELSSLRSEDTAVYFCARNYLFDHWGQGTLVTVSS
RC48-vc-MMAF, sequence (VL): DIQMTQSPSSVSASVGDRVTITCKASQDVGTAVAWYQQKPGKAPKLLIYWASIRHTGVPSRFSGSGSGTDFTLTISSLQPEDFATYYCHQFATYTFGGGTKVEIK
RC48-vc-MMAE, sequence (VH): as the sequence (VH) above
RC48-vc-MMAE, sequence (VL): as the sequence (VL) above
humanized anti-HER2 antibody RC48, sequence (VH): as the sequence (VH) above
humanized anti-HER2 antibody RC48, sequence (VL): as the sequence (VL) above

For the substance RC48-vc-MMAE, in test [1], the Affinity is 2.24 ng/mL and the Molar equivalent worked out at 15.2 pmol/L.
The like results for RC48-vc-MMAF were, in that order, 3.35 ng/mL and 13.5 pmol/L.
What is called Kd is the free concentration of one partner at which half of the binding sites on the other are occupied at equilibrium, for simple one-to-one binding. Take human-murine chimeric antibody cRC48: in test [2], the Kd came to 0.077 nM.
The same measure, in the same setting: the figure for humanized anti-HER2 antibody RC48 is 0.044 nM.
